Assays:
ubiquitin [1] = target: T1, ubiquitin (UniProt P0CG47 1-76); experiment: ITC
ubiquitin [2] = target: T1, ubiquitin; experiment: NMR titration

B1: human REV1 (932–1039) (domain or fragment, UniProt Q9UBZ9 932-1039, looked up)
chain: VPSPSQLDQSVLEALPPDLREQVEQVCAVQQAESHGDKKKEPVNGCNTGILPQPVGTVLLQIPEPQESNSDAGINLIALPAFSQVDPEVFAALPAELQRELKAAYDQR
Kd (ubiquitin [1]): ~49 µM
Kd (ubiquitin [2]): ~27 µM
